Source: paper PMC8440770

Target: spMSP1D1 (MSP1D1 with SpyCatcher at the N-terminus and SpyTag at the C-terminus, circularized)
Assay: cross-linking + other: fluorescence fluctuation spectroscopy; spMSPs in PC lipid nanodiscs (cNDs); cross-linking: cNDs 0.5 µM in PBS with EGS, room temperature 1 h, SDS-PAGE; fluctuation spectroscopy: molecular brightness of FITC-labeled spMSPs and cNDs (100 pM) in reconstitution buffer by photon counting histogram

- stoichiometry N: 2
Substance: spMSP1D1 (MSP1D1 with SpyCatcher at the N-terminus and SpyTag at the C-terminus, circularized)
